From patent publication US7144986B2, “Polypeptides comprising IL-6 ligand binding receptor domains” (The United States of America as represented by the …, priority 1999, dated 2006)

target: recombinant human IL-6 (Homo sapiens, UniProt P05231); test: Binding of radioiodinated recombinant human IL-6 to synthetic peptide arrays in 96-well microtiter plates; conditions: Example 1, domain I peptides (IL-6 receptor residues 66–86): truncations and alanine replacements; radiolabeled IL-6 remaining after wash
Experimental: Synthetic peptide arrays were constructed in 96-well microtiter plates in accordance with the method set forth in WO 91/02714 (Saxinger), and used to test the binding of recombinant human IL-6 that had been labeled with radioactive iodine (radiolabeling by standard methods). After incubating the radiolabeled IL-6 ligand in a well with each synthetic peptide, a washing step was performed to remove unbound label, and the relative level of radioactivity remaining in each well of the plate was evaluated to determine the relative affinity of each peptide for IL-6 ligand.
Each of the four binding domains was analyzed in detail, which is set forth in these examples. First, serial truncations (or nested truncations) were performed from each end of the peptides to determine the location of the critical binding residues within each domain. Second, each amino acid residue in the critical regions of each domain were serially replaced by an alaninyl residue to indicate whether the side-chain of the residue at each particular location is likely to be essential or important to the mechanism of binding.
This example employs essentially the same techniques as Examples 1–4 except that fragments of the β-chain of the IL-6 receptor are used. As is known in the art, the β-chain is shared by multiple receptors. Thus, the identified fragments here are effective inhibitors of a multiplicity of binding reactions in addition to the IL-6 ligand:IL-6 receptor interaction.

Sequence of recombinant human IL-6 (P05231 30-212): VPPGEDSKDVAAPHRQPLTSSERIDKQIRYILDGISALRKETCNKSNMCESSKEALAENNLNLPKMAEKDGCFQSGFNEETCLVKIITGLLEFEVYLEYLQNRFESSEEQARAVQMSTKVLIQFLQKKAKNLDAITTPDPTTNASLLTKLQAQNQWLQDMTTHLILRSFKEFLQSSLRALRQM

Which Counts/minute bound does the source give for AAGSHPSRWAGMGRRL [Peptide A6] here?
The Counts/minute bound was 1753 Counts/minute.

Which Counts/minute bound does the source give for AAGSHPSRWAGMGRRLLLRSV [Peptide A1] here?
Its Counts/minute bound is 10739 Counts/minute.

Which Counts/minute bound does the source give for AAGSHPSRWAGMGRRLLLRSV [Peptide A17] here?
The Counts/minute bound was 10884 Counts/minute.

AAGSHPSRWAGMGRRLLLRSV [Peptide A33] was tested. Which Counts/minute bound did it give?
The Counts/minute bound was 10213 Counts/minute.

same assay, conditions: Example 2, domain II peptides (IL-6 receptor residues 136–156): truncations and alanine replacements

With TKAVLLVRKFQNS [Peptide B26] as the substance, how does the Counts/minute bound read?
The Counts/minute bound was 5226 Counts/minute.

Which Counts/minute bound does the source give for PRSTPSLTTKAVLLVRKFQNS [Peptide B17] here?
The Counts/minute bound was 12347 Counts/minute.

With PRSTPSLTTKAVLLVRKFQNS [Peptide B1] as the substance, how does the Counts/minute bound read?
Its Counts/minute bound is 10790 Counts/minute.

For PRSTPSLTTKAVLL [Peptide B8], which Counts/minute bound is on record?
The Counts/minute bound was 1846 Counts/minute.

For PRSTPSLTTKAVLLVRKFQNS [Peptide B33], which Counts/minute bound is on record?
Its Counts/minute bound is 11699 Counts/minute.

For TKAVLLVRKFQNS [Peptide B25], which Counts/minute bound is on record?
The Counts/minute bound was 5753 Counts/minute.

same assay, conditions: Example 3, domain III peptides (IL-6 receptor residues 246–266): truncations and alanine replacements

SSFYRLRFELRYRAERSKTFT [Peptide C1] was tested. Which Counts/minute bound did it give?
Its Counts/minute bound is 14571 Counts/minute.

For SSFYRLRFELRYRAERSKTFT [Peptide C17], which Counts/minute bound is on record?
Its Counts/minute bound is 15127 Counts/minute.

How did the Counts/minute bound turn out when SSFYRLRFELRYRAERSKTFT [Peptide C33] was run?
Its Counts/minute bound is 14610 Counts/minute.

same assay, conditions: Example 4, domain IV peptides, D11–D57, separate experiment: truncations and alanine replacements

GGSLAFGTLLCIAIVLRFKKT [Peptide D11] was tested. Which Counts/minute bound did it give?
Its Counts/minute bound is 20349 Counts/minute.

With GGSLAFGTLLCIAIVLRFKKT [Peptide D43] as the substance, how does the Counts/minute bound read?
The Counts/minute bound was 20385 Counts/minute.

How did the Counts/minute bound turn out when GGSLAFGTLLCIAIVLRFKKT [Peptide D27] was run?
The Counts/minute bound was 21945 Counts/minute.

LRFKKT [Peptide D42] was tested. Which Counts/minute bound did it give?
Its Counts/minute bound is 1958 Counts/minute.

same assay, conditions: Example 5, fragments of the β-chain of the IL-6 receptor

With LTCNILTFGQLEQNVYGITIISGL [Peptide E11] as the substance, how does the Counts/minute bound read?
Its Counts/minute bound is 1816 Counts/minute.

SDKAPCITDWQQEDGTVHRTYLRG [Peptide E47] was tested. Which Counts/minute bound did it give?
The Counts/minute bound was 2079 Counts/minute.

same assay, conditions: receptor sequence taken 21 amino acid residues at a time

With AAGSHPSRWAGMGRRLLLRSV [Peptide A1] as the substance, how does the “Initial screening of IL-6 receptor primary sequence for binding of IL-6 ligand” value (from here on “Initial screening”) read?
The value was “active binding sequences”.

With SSFYRLRFELRYRAERSKTFT [Peptide C1] as the substance, how does the “Initial screening” value read?
The value was “active binding sequences”.

With GGSLAFGTLLCIAIVLRFKKT [Peptide D5] as the substance, how does the “Initial screening” value read?
Its value is “active binding sequences”.

How did the “Initial screening” value turn out when PRSTPSLTTKAVLLVRKFQNS [Peptide B1] was run?
The value was “active binding sequences”.
